Test results as given in patent publication US20070184522A1, “Cell death modulation via antagonists of Fasl and Fas activation” (University of Pittsburgh of the Commonwealth System of …, priority 2004, published 2007).

Legend:
[1] = biological target: T1, Fas-Fc (Mus musculus, UniProt P25446); assay: ELISA of Fas-Fc binding to coated synthetic polypeptides; conditions: peptides coated at 1 μg/ml, increasing Fas-Fc, OD 450 nm
T1 construct: purchased R&D
T1 sequence (P25446 22-169 limits assumed): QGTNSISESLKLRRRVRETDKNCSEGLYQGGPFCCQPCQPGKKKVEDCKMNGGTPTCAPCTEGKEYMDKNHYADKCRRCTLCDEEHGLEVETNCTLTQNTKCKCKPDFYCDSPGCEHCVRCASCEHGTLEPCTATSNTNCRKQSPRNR
Source text: The Met alpha but not beta chain binds to Fas (FIG. 1a). Various regions of the mouse Met cDNA corresponding to the alpha chain or the extra-cellular portion of the Met beta chain were cloned into expression vectors (pCRT7 TOPO/AlphaMet or pCRT7 TOPO/beta chain) and subjected to in vitro transcription/translation by a rabbit reticolucyte lysate translation system. Empty vector was included in each experiment as a control. The expressed proteins were labeled with ^35S-Methionine. Pull down assays were performed using Fas-Fc, a chimeric molecule which lacks the interacellular cytoplasmic domain and protein-A agarose as described in Wang et al., 2002. FIG. 1b is a schematic presentation of the Met alpha chain and its mutant version used to map the region interacting with Fas. The C-terminus of each construct contains a hexa-Histidine tag for ease of detection. Start cordon ATG was added to the N-terminally truncated constructs. The YLGA (SEQ ID NO:1) motif mutation was prepared by PCR, in which YLGA (SEQ ID NO:1) was replaced by DHER (SEQ ID NO:24). […] In vitro translated ^35S-methionine labeled truncated/mutated AlphaMet proteins were pulled down with 2 μg of Fas-Fc or the same amount of IgG. Lane 1: 10% of AlphaMet input; Lane 2: AlphaMet with IgG control; Lanes 3 to 8: pull down of various truncated AlphaMet proteins; N-terminal 1-106 residues; C-terminal truncated, residues 1-210; alpha chain, residues 1-306; alpha chain with transmembrane domain, 1-338; N-terminally truncated alpha chain, residues 100-306; and N-terminally truncated with addition of the transmembrane domain 100-338, respectively. FIG. 1d depicts the amino acid sequence alignment of alpha chain with FasL, determined using the CLUSTALW, SIM+LALNVIEW, and ALIGN at ExPASy Proteomic Tools (available on the internet at us.expresly.org/tools). The numbers indicate the amino acid residues of the indicated protein. […] Recombinant His-tagged AlphaMet or its mutant version were expressed in E. coli, purified with chromatography, and subjected to Fas-Fc (lanes labeled Fas) or control IgG pull down experiments, and detected by Western blot using anti-His antibody that recognizes C-terminal His. This antibody also recognizes the Fas-Fc which is also tagged at the C-terminus by His. […] Purified recombinant AlphaMet protein (approximately 10 μg) was mixed with Hepa 1-6 cells or Jurkat cell lysates and subjected to immunoprecicitation using anti-Fas antibody or control IgG followed by Western blot using anti His-tag antibody as a probe. […] Peptides (1 μg/ml) were coated into the 96-well microtiter plates in triplicate and after blocking with 1% BSA, increasing amounts of Fas-Fc were added as indicated. The control peptide was a scrambled 13 mer. After washing the wells, anti-human […]-HRP conjugates (1:20,000) were added to detect the bound Fas-Fc using TMD dye and the OD value was determined at a wavelength of 450 nm. One-way ANOVA was carried out for determination of statistical significance.
ELISA. Synthesized polypeptides (Genemed Synthesis, Inc. South San Francisco, Calif.) were dissolved in water and diluted in the coating buffer (0.05M of Sodium Carbonate, 0.02% of Sodium Azide, pH 9.6) to a final concentration of 1 ug/ml. One hundred microliter aliquots were added to coat each well of a 96-well microtitre plate. The coated plates were then washed with PBS-Tween (0.5%) three times. The plates were blotted and dried by tapping upside down on tissue paper. They were blocked using 200 μl of 1% of BSA in PBS solution followed by a 2 hour incubation. Plates were washed another three times, Fas-Fc was added, and the plates were incubated for another 2 hours. The plates were washed three times and anti-human IgM Fc HRP conjugates were included at a final concentration of 1:20,000, and incubated for 1 hour. Plates were washed three times again and ready-to-use TMD was added and incubated for 30 minutes. The color reaction was stopped by 2M of Sulfuric Acid. […]

[2] = biological target: T2, Fas-Fc / Fas ligand binding (Mus musculus, UniProt P25446); assay: Competition ELISA: coated Fas ligand, Fas-Fc added with increasing amounts of polypeptide; conditions: Fas ligand 1 μg/ml coated, Fas-Fc 1 μg/ml
T2 construct: purchased R&D
T2 sequence (P25446 22-169 limits assumed): T1 sequence (P25446 22-169 limits assumed)
Procedure: This antibody also recognizes Fas-Fc which is also tagged at the C-terminus by His. In FIG. 2b, a fixed amount of purified recombinant Fas-ligand was added to Fas-Fc in the absence or presence of increasing amounts of AlphaMet as indicated. Samples were subjected to pull down using proteinA agarose followed by Western blot using a polyclonal rabbit anti-FasL antibody. […] Fas ligand (1 μg/ml) was coated in the wells of a microtiter plate (triplicate wells) then 1 μg/ml of Fas-Fc was added in the absence or presence of an increasing amount of the indicated polypeptide. A 13 mer YLGA polypeptide derived from FasL also was synthesized and used. The control peptide was a scrambled 13 mer. Anti human IgM-HRP conjugates were used to detect the bound Fas-Fc. […] One-way ANOVA was carried out for determination of statistical significance. […] Cells (3×10^5) were plated in 24-well plates having Poly-L-Lysine pre-treated cover glass. 2 μg/ml of Fas ligand was added and the cells were incubated for 30 min on ice. Cells were then washed by PBS twice, and were subjected to immunostaining using anti-Fas ligand antibody and fluorescent microscopy. In Frame A, Fas ligand was not added, in B, only Fas ligand was added, in C-F, Fas ligand was added with different polypeptides as follows: AlphaMet, 12 mer YLGA, control peptide, and YLGA mutated AlphaMet, respectively.
ELISA. Synthesized polypeptides (Genemed Synthesis, Inc. South San Francisco, Calif.) were dissolved in water and diluted in the coating buffer (0.05M of Sodium Carbonate, 0.02% of Sodium Azide, pH 9.6) to a final concentration of 1 ug/ml. One hundred microliter aliquots were added to coat each well of a 96-well microtitre plate. The coated plates were then washed with PBS-Tween (0.5%) three times. The plates were blotted and dried by tapping upside down on tissue paper. They were blocked using 200 μl of 1% of BSA in PBS solution followed by a 2 hour incubation. Plates were washed another three times, Fas-Fc was added, and the plates were incubated for another 2 hours. The plates were washed three times and anti-human IgM Fc HRP conjugates were included at a final concentration of 1:20,000, and incubated for 1 hour. Plates were washed three times again and ready-to-use TMD was added and incubated for 30 minutes. The color reaction was stopped by 2M of Sulfuric Acid. Plates were applied to color read at a wave length of 450 nm.

| Substance | Fas binding by ELISA [1] | inhibition of FasL binding to Fas-Fc (ELISA) [2] |
| --- | --- | --- |
| HHIYLGATNYIY [12 mer] | bound Fas strongly | significantly inhibited FasL binding |
| YLGA [YLGA 4 mer] | lower compared to the YLGA 12 mer | lower, yet significant inhibition |
